Residue numbers refer to the chain shown, from its start. Names may count otherwise. Read-outs that look alike come from different tables or passages of the source.
T1: TGFβ3 (human, UniProt P10600 301-412)
T1 sequence (looked up): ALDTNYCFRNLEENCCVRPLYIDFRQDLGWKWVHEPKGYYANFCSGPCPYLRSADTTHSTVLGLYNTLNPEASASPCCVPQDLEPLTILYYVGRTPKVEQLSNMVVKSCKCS

T2: activin A (UniProt P08476 311-426)
T2 sequence (looked up): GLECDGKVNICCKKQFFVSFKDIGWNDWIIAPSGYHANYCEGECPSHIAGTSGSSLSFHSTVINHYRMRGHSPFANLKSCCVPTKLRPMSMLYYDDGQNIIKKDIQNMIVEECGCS

T3: BMP9 (UniProt Q9UK05)
T3 sequence (looked up): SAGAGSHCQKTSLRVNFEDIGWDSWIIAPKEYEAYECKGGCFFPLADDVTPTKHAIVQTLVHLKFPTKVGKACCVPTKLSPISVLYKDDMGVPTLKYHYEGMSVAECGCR

T4: TGFβ2 (human) (UniProt P61812)
T4 sequence (looked up): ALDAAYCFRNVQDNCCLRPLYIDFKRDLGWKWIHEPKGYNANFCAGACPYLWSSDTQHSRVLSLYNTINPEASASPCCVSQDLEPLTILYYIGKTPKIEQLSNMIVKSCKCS

T5: activin B (UniProt P09529)
T5 sequence (looked up): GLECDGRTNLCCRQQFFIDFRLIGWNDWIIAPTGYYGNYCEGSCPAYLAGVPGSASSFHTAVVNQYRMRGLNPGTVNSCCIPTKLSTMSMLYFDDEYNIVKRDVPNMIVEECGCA

T6: BMP10 (UniProt O95393)
T6 sequence (looked up): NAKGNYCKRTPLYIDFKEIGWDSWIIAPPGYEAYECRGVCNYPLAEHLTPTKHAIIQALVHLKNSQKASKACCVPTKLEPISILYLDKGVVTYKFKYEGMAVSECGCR

B1: ActRIIB-Fc:TβRII-Fc heterodimer (Fc fusion, not shown: a dimerising Fc or GST)
chain 1: GRGEAETRECIYYNANWELERTNQSGLERCEGEQDKRLHCYASWRNSSGTIELVKKGCWLDDFNCYDRQECVATEENPQVYFCCCEGNFCNERFTHLPEAGGPEVTYEPPPTAPTGGGGSGGGGSGGGGSGGGGS
chain 2: TIPPHVQKSDVEMEAQKDEIICPSCNRTAHPLRHINNDMIVTDNNGAVKFPQLCKFCDVRFSTCDNQKSCMSNCSITSICEKPQEVCVAVWRKNDENITLETVCHDPKLPYHDFILEDAASPKCIMKEKKKPGETFFMCSCSSDECNDNIIFSEEYNTSNPDTGGGGSGGGGSGGGGSGGGGS
B2: ActRIIB-Fc homodimer (Fc fusion)
ActRIIB-Fc chain: GRGEAETRECIYYNANWELERTNQSGLERCEGEQDKRLHCYASWRNSSGTIELVKKGCWLDDFNCYDRQECVATEENPQVYFCCCEGNFCNERFTHLPEAGGPEVTYEPPPTAPTGGGTHTCPPCPAPELLGGPSVFLFPPKPKDTLMISRTPEVTCVVVDVSHEDPEVKFNWYVDGVEVHNAKTKPREEQYNSTYRVVSVLTVLHQDWLNGKEYKCKVSNKALPVPIEKTISKAKGQPREPQVYTLPPSREEMTKNQVSLTCLVKGFYPSDIAVEWESNGQPENNYKTTPPVLDSDGSFFLYSKLTVDKSRWQQGNVFSCSVMHEALHNHYTQKSLSLSPGK
B3: Fc1-(G4S)4G-TGFBRII, homodimer (Fc fusion)
chain: GASNTKVDKRVTGGGTHTCPPCPAPELLGGPSVFLFPPKPKDTLMISRTPEVTCVVVDVSHEDPEVKFNWYVDGVEVHNAKTKPREEQYNSTYRVVSVLTVLHQDWLNGKEYKCKVSNKALPAPIEKTISKAKGQPREPQVCTLPPSREEMTKNQVSLSCAVKGFYPSDIAVEWESNGQPENNYKTTPPVLDSDGSFFLVSKLTVDKSRWQQGNVFSCSVMHEALHNHYTQKSLSLSPGAGGGGSGGGGSGGGGSGGGGSGTIPPHVQKSDVEMEAQKDEIICPSCNRTAHPLRHINNDMIVTDNNGAVKFPQLCKFCDVRFSTCDNQKSCMSNCSITSICEKPQEVCVAVWRKNDENITLETVCHDPKLPYHDFILEDAASPKCIMKEKKKPGETFFMCSCSSDECNDNIIFSEEYNTSNPD
B4: ActRIIB-Fc-(G4S)4G-TGFBRII + Fc1-(G4S)4G-TGFBRII (3-arm) (Fc fusion)
ActRIIB-Fc(knob)-(G4S)4G-TGFBRII chain: GASGRGEAETRECIYYNANWELERTNQSGLERCEGEQDKRLHCYASWRNSSGTIELVKKGCWLDDFNCYDRQECVATEENPQVYFCCCEGNFCNERFTHLPEAGGPEVTYEPPPTAPTGGGTHTCPPCPAPELLGGPSVFLFPPKPKDTLMISRTPEVTCVVVDVSHEDPEVKFNWYVDGVEVHNAKTKPREEQYNSTYRVVSVLTVLHQDWLNGKEYKCKVSNKALPAPIEKTISKAKGQPREPQVYTLPPCREEMTKNQVSLWCLVKGFYPSDIAVEWESNGQPENNYKTTPPVLDSDGSFFLYSKLTVDKSRWQQGNVFSCSVMHEALHNHYTQKSLSLSPGAGGGGSGGGGSGGGGSGGGGSGTIPPHVQKSDVEMEAQKDEIICPSCNRTAHPLRHINNDMIVTDNNGAVKFPQLCKFCDVRFSTCDNQKSCMSNCSITSICEKPQEVCVAVWRKNDENITLETVCHDPKLPYHDFILEDAASPKCIMKEKKKPGETFFMCSCSSDECNDNIIFSEEYNTSNPD
Fc1(hole)-(G4S)4G-TGFBRII chain: B3 chain
B5: ActRIIB-Fc Single-Arm (Fc fusion)
ActRIIB-Fc chain: B2 ActRIIB-Fc chain with V226A, E252K, D295K
Fc chain without receptor domain: SNTKVDKRVTGGGTHTCPPCPAPELLGGPSVFLFPPKPKDTLMISRTPEVTCVVVDVSHEDPEVKFNWYVDGVEVHNAKTKPREEQYNSTYRVVSVLTVLHQDWLNGKEYKCKVSNKALPAPIEKTISKAKGQPREPQVYTLPPSREEMTKNQVSLTCLVKGFYPSDIAVEWESNGQPENNYDTTPPVLDSDGSFFLYSDLTVDKSRWQQGNVFSCSVMHEALHNHYTQKSLSLSPGK

How the values were obtained:
TGFβ1 [1] = target: T7, TGFβ1 (human, UniProt P01137 279-390)
TGFβ3 [2] = target: T1, TGFβ3
activin A [3] = target: T2, activin A
GDF8 = GDF8 (UniProt O14793)
BMP9 = target: T3, BMP9
TGFβ1 [4] = target: T7, TGFβ1; remark: listed apart in the source
TGFβ2 (human) = target: T4, TGFβ2 (human)
activin B = target: T5, activin B
GDF11 [5] = target: T8, GDF11 (UniProt O95390 299-407)
BMP10 = target: T6, BMP10
TGFβ3 [6] = target: T1, TGFβ3; remark: listed apart in the source
activin A [7] = target: T2, activin A; assay: cell-based or functional assay
GDF11 [8] = target: T8, GDF11; assay: cell-based or functional assay
TGFβ1 [9] = target: T7, TGFβ1; assay: cell-based or functional assay
TGFβ3 [10] = target: T1, TGFβ3; assay: cell-based or functional assay
TGFβ1 [11] = target: T7, TGFβ1; assay: cell-based or functional assay; remark: listed apart in the source
TGFβ3 [12] = target: T1, TGFβ3; assay: cell-based or functional assay; remark: listed apart in the source

T8 sequence (O95390 299-407 limits assumed): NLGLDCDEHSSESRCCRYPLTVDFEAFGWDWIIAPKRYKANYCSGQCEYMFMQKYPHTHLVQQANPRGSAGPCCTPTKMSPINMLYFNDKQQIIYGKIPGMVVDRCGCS
T7 sequence (P01137 279-390 limits assumed): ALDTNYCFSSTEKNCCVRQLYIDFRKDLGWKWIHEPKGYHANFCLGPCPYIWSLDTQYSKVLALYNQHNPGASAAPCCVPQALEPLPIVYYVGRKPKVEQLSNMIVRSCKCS

Molecule	IC50; inhibition of activin A signalling, CAGA12 reporter gene assay (activin A [3])	IC50; inhibition of GDF8 signalling, CAGA12 reporter gene assay (GDF8)	IC50; inhibition of BMP9 signalling, CAGA12 reporter gene assay (BMP9)	IC50; inhibition of TGFβ1 signalling, CAGA12 reporter gene assay (TGFβ1 [4])	IC50; inhibition of TGFβ2 signalling, CAGA12 reporter gene assay (TGFβ2 (human))	IC50; inhibition of activin B signalling, CAGA12 reporter gene assay (activin B)	IC50; inhibition of GDF11 signalling, CAGA12 reporter gene assay (GDF11 [5])	IC50; inhibition of BMP10 signalling, CAGA12 reporter gene assay (BMP10)	IC50; inhibition of activin A signalling, CAGA12 reporter gene assay in A204 cells (activin A [7])	IC50; inhibition of GDF11 signalling, CAGA12 reporter gene assay in A204 cells (GDF11 [8])	other results
TGFBRII-(G4S)4-hFc dimer (Fc fusion)											IC50; inhibition of TGFβ1 signalling, CAGA12 reporter gene assay in A549 cells (TGFβ1 [1]): 0.143 nM; IC50; inhibition of TGFβ3 signalling, CAGA12 reporter gene assay in A549 cells (TGFβ3 [2]): 0.106 nM
TβRII-Fc homodimer (Fc fusion)	> 20 µg/mL	> 20 µg/mL	> 20 µg/mL	0.017 nM	> 20 µg/mL	> 20 µg/mL	> 20 µg/mL	> 20 µg/mL			
B1	0.85 nM	8.16 nM	> 20 µg/mL	0.348 nM	> 20 µg/mL	0.64 nM	1.73 nM	1.76 nM			IC50; inhibition of TGFβ3 signalling, CAGA12 reporter gene assay (TGFβ3 [6]): 0.31 nM
B2	0.05 nM	0.83 nM	2 nM	> 20 µg/mL	> 20 µg/mL	0.07 nM	0.09 nM	0.556 nM	0.079 nM	0.135 nM	IC50; inhibition of TGFβ3 signalling, CAGA12 reporter gene assay (TGFβ3 [6]): > 20 µg/mL
B3											CAGA12 reporter gene assay in A549 cells, inhibition relative to the TGFBRII-(G4S)4-hFc homodimer (TGFβ1 [9]): ~7 fold; CAGA12 reporter gene assay in A549 cells, inhibition relative to the TGFBRII-(G4S)4-hFc homodimer (TGFβ3 [10]): ~7 fold
B4									2.96 nM	4.4 nM	IC50; inhibition of TGFβ1 signalling, CAGA12 reporter gene assay in A549 cells (TGFβ1 [11]): 0.0201 nM; IC50; inhibition of TGFβ3 signalling, CAGA12 reporter gene assay in A549 cells (TGFβ3 [12]): 0.016 nM
B5									1.41 nM	2.61 nM	
